Reference: US7067474B1, “Agents for treating human illnesses based on β-catenin, and the production and use thereof” (Max-Delbruck-Centrum fur Molekulare Medizin, priority 1998, dated 2006)

Tests used:
[1] = molecular target: T1, human β-catenin (Leu218-Leu781) mutant Arg 457 to alanine, Gal-4 activation domain fusion (human, UniProt P35222 218-781); assay: yeast 2-hybrid; - means 60-100% of the wild type interaction
T1 sequence: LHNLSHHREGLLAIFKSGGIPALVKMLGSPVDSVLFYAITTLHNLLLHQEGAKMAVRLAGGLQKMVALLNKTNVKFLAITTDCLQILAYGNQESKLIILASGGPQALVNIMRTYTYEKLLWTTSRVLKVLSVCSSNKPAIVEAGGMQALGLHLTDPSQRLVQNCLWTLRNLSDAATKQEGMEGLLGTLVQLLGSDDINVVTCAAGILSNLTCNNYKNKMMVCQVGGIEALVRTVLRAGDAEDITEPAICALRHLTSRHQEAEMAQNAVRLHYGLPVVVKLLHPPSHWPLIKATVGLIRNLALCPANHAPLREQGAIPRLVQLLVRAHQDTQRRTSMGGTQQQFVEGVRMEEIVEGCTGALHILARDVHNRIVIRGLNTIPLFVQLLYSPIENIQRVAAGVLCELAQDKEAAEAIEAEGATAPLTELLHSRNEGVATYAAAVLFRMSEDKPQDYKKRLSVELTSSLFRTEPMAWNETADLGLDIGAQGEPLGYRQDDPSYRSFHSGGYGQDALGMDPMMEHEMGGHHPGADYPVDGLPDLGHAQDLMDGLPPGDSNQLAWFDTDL
Protocol: (§1) 4. Preparation and testing of mutants of β-catenin modulating the interaction with LEF-1, APC, conductin or E-cadherin The mutagenesis of β-catenin in the armadillo repeats 3–8 was carried out by means of the "mutagenesis kit" of the company Clontech according to the producer's record and the mutants were checked by sequencing (FIG. 5). In all mutants the original amino acid was substituted by alanine. For analyzing the interactions the cDNA of human β-catenin (armadillo repeat 3 up to the C-terminal end of the protein) coding for the amino acids Leu218–Leu7 µl or its mutants was cloned into the fusion vector for the activation domain of Gal-4 (pGAD424, Clontech). The cDNA for the binding domains of the interaction partners was cloned into the Lex-A fusion vector BTM 116. To this end, the cDNA of LEF-1 for the amino acids 1–99, conductin for the amino acids Ala342–ARG465; of human APC for the amino acids His1012–Glu1215 (APC 15 amino acid repeats) and for the amino acids Ser1259Asp 1400 (APC 20 amino acid repeats) and E-cadherin for the amino acids Gin773–Asp884 (cytoplasmatic domain) were amplified with the respective primers PCR. The interaction of the Lex-A hybrids with β-catenin and its mutants was quantified by means of the β-galactosidase reporter activity in the yeast 2-hybrid system (report: "Matchmaker". Clontech) (Tab. 2 and FIG. 6).

[2] = molecular target: T2, human β-catenin (Leu218-Leu781) mutant Trp 338 to alanine, Gal-4 activation domain fusion (human, UniProt P35222 218-781); assay: as above
T2 sequence: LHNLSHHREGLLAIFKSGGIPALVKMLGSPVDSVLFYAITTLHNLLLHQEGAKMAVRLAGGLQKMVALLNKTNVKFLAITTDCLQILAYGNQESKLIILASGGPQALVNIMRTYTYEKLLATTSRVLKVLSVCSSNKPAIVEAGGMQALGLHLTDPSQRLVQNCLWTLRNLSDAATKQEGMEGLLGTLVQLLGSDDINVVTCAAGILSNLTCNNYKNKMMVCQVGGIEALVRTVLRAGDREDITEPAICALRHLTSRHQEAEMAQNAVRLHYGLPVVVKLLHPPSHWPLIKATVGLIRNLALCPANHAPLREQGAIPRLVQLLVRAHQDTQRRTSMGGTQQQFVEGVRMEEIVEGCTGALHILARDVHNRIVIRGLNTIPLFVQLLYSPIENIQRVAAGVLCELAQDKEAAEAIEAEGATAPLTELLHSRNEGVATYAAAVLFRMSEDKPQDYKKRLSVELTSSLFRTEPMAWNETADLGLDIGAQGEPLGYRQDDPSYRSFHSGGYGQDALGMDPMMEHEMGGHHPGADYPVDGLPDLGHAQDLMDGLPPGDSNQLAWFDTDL
Protocol: as §1

[3] = molecular target: T3, human β-catenin (Leu218-Leu781) mutant Arg 274 to alanine, Gal-4 activation domain fusion (human, UniProt P35222 218-781); assay: as above
T3 sequence: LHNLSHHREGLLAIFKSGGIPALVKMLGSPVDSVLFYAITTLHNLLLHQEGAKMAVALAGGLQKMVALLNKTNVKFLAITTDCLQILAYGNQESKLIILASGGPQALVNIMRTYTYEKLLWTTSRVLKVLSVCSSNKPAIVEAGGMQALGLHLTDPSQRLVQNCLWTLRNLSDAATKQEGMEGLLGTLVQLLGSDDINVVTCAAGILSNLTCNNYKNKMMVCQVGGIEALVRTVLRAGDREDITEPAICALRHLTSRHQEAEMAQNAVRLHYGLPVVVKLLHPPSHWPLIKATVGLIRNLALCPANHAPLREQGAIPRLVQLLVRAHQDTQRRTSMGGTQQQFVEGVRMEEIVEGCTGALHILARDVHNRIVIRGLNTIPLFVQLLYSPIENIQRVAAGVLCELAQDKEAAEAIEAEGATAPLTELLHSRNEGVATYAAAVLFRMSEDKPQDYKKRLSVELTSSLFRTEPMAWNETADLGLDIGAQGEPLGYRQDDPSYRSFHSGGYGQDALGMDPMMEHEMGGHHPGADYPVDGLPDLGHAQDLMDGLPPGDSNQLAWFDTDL
Protocol: as §1

[4] = molecular target: T4, human β-catenin (Leu218-Leu781) mutant His 470 to alanine, Gal-4 activation domain fusion (human, UniProt P35222 218-781); assay: yeast 2-hybrid
T4 sequence: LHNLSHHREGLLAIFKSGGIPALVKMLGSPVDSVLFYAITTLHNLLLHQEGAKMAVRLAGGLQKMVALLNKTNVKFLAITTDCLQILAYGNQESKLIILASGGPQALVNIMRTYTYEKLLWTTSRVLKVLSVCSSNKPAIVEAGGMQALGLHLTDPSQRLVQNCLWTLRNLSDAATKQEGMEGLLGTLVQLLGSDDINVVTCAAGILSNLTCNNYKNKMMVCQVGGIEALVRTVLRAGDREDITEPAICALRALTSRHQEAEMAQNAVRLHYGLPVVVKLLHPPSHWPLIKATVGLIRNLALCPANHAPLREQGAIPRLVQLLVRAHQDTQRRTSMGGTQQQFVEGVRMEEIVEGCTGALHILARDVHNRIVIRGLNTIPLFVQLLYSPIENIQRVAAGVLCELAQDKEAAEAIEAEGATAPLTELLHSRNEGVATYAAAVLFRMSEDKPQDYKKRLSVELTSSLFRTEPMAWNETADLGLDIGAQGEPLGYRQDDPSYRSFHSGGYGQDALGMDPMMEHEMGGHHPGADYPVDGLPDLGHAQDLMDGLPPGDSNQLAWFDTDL
Protocol: as §1

B1: LEF-1 amino acids 1-99 fused to Lex-A (vector BTM 116) (other, UniProt P0A7C2 1-202, looked up)
chain: MKALTARQQEVFDLIRDHISQTGMPPTRAEIAQRLGFRSPNAAEEHLKALARKGVIEIVSGASRGIRLLQEEEEGLPLVGRVAAGEPLLAQQHIEGHYQVDPSLFKPNADFLLRVSGMSMKDIGIMDGDLLAVHKTQDVRNGQVVVARIDDEVTVKRLKKQGNKVELLPENSEFKPIVVDLRQQSFTIEGLAVGVIRNGDWLMPQLSGGGGGGDPELCATDEMIPFKDEGDPQKEKIFAEISHPEEEGDLADIKSSLVNESEIIPASNGHEVVRQAPSSQEPYHDKAREHPDEGKHPDGGL
notes: Order of the fusion follows the vector; also called LEF-1/TCF-4
**Q.** What does the source list for B1?
**A.** binding result [1]: binds; binding result [2]: binds; binding result [3]: binds; binding result [4]: no binding
